± gives the uncertainty stated by the source.

The series can be described thus: amyloid nucleation score (Sup35N fusion, yeast selection) (log enrichment); library NNK1; higher = more nucleation; inactive = no reads after selection. An outline of the steps: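 On medium lacking adenine and uracil, psi-negative yeast expressing peptides of 20 random codons fused to Sup35N were grown 7 days at 30°C after a 24-hour induction with 100 μM copper sulfate. Illumina sequencing of input and output plasmid inserts gave the reads, and sequences under 100 input reads were excluded. The nucleation score is the DiMSum log enrichment of output over input reads, centred on the mode score of non-aggregating sequences.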
As for PRHFVKVIEAPASLLIVYHG, the amyloid nucleation score was -1.02 ± 1.8. The value for NFACVFTSTSRMCRH was 3.85 ± 0.1; that for FHHCFIQTSSDAVSSGLDFE was 0.644 ± 0.78. With ASYTIND, the amyloid nucleation score is -0.57 ± 1.1.

LYDRCYGIRSSAIEGEEYKR showed an amyloid nucleation score of 0.806 ± 0.97. The value for FCVWIGKEGD was 0.442 ± 0.51; that for LGKNFLYISCSLTDQGAGLH was 2.7 ± 0.16; that for IHWANPLTVSAFKVWVEDMV was 0.256 ± 0.29.

As for RRSCRRTGGTSASKPSRQAF, the amyloid nucleation score was determined as 0.013 ± 0.45. GVSQNKCMPVWCVR: the amyloid nucleation score was 0.504 ± 0.38. Regarding SFIMSNS, the amyloid nucleation score is 0.075 ± 0.41. The value for LPSSGA was -0.019 ± 0.64.

With MIKSKM, the amyloid nucleation score was -0.154 ± 0.61. For QWSDS the value was -0.267 ± 0.41; for CDKKWIASQSMVGRRTMV, “inactive”. Take CYMKNKLSFIM: the amyloid nucleation score result is “inactive”.

For the substance SLAYCSFHMLKIPLRSGPTW, the amyloid nucleation score worked out at 0.01 ± 1.2.

VNVCESTPPDVESRGVCDAG had an amyloid nucleation score of 2.06 ± 0.1. The value for SGGPWVNCNFNT was 0.494 ± 0.47; that for LYCTLLKDSVSSLAVTYMSY was -0.071 ± 0.28.

Consider TLCSSGKGRCLVAVT, for which the amyloid nucleation score turned out to be 0.115 ± 1. For TNSTISYFARFVVIWLGKIA, the amyloid nucleation score was -0.488 ± 0.86. LCDYKRPCMTMYNHHELLII came in with an amyloid nucleation score of 0.005 ± 0.47. Regarding LAFGFTSWS, the amyloid nucleation score is 0.49 ± 0.38. The value for NIGYSLAVMSAMMLLHFNFG was 2.95 ± 0.082.

Take FNFRSS: the amyloid nucleation score was -0.618 ± 0.72. As for EILIYNNYETFLVSFFEYGG, the amyloid nucleation score stood at 4.21 ± 0.083.

In turn, MFDGEIFSYFNCTIV showed an amyloid nucleation score of 5.67 ± 0.051. For IYEILKVTS the value was “inactive”; for ARRGVVNPYLSVEFFFRRGL, 0.493 ± 0.68. For CLGDTWWNMNKSGTEVVCPV the value was 0.858 ± 1.1; for YKSSILPTEFGFACKPWGHL, 0.3 ± 0.55; for TQLSMWSVRIKISYWVSGGV, 0.804 ± 1.1. For KAKTFI the value was 0.268 ± 1.2; for GYKMAYNFCDEKEGLNWRVG, -0.257 ± 0.52; for PKKLRMYLPMHLSTPKRRLV, 0.565 ± 0.58.

As for RCNDAFTFTCRPGWMWKWGK, the amyloid nucleation score is 1.75 ± 0.18. For SSVCFVNRGSWPYSKVFNGC, the amyloid nucleation score was -0.019 ± 0.37. In turn, MSSVNWYANDLLSVLGIGSR displayed an amyloid nucleation score of -0.202 ± 1.2. For LIQLVDRVGGGVFTRDCDAI the value was -0.368 ± 0.47; for QGSDSSNEATTAPLCRLRIW, 1.11 ± 0.94; for GSTTSLRFTVLQTFLFSCNN, -0.663 ± 0.8.

As for HGMWNTQVTVTWYTSADLFV, the amyloid nucleation score is -0.093 ± 0.52. For the substance SYGHLRAFFEDCSH, the amyloid nucleation score was -0.145 ± 0.51.

KVQYLFCNYLIKSYMMVQCN yielded an amyloid nucleation score of 0.477 ± 0.39.

In the case of PKFAHILTHGVSHMQWTVVK, the amyloid nucleation score was found to be 0.06 ± 0.35. The value for VGHYDNSYGRNGLLTTR was -0.179 ± 0.53; that for ADVATMSRGEKGASGGLK was 0.508 ± 0.54; that for RTNSSSVCSILKGLSQ was -0.535 ± 1.1. The value for VALWYFCCVVAYYGGARLVS was 2.06 ± 0.33; that for LVPSWRVFVQHLGLFRAL was 0.333 ± 0.7; that for FMDMDRLMSRGLQVNKGVML was -0.228 ± 0.68. LMSLRDQRVLALN yielded an amyloid nucleation score of -0.533 ± 0.44. The value for YIVPQLT was 1.47 ± 0.81. For LPFMTHVHVLSRQKTKVKGR, the amyloid nucleation score is -0.041 ± 0.28. The substance SHNVKSWCRYSDGQKGLCKY registered an amyloid nucleation score of 1.62 ± 0.43. The value for NDFYVLNASFSSRHSYAIRH was 1.1 ± 0.3.

Values taken from the supplement of paper PMC12042874.
